Laboratory results: the supplement of paper PMC9732359
± gives the uncertainty stated by the source.

Assay: protein stability index of a GFP-peptide fusion (yeast GPS) (PSI 1-4); higher = more stable; sorted into four equal gates, so the index is relative within each strain
Summary of the method: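 The protein stability index combines read frequencies across sorting gates, each weighted by its gate number and then summed. To obtain those frequencies, a pooled yeast library of GFP fusions to tiled 17-residue yeast protein peptides, on a plasmid also expressing Cherry, was grown to mid-log phase in leucine-free medium. The cells were sorted into four equal gates by GFP/Cherry ratio before plasmid amplification by PCR and Illumina sequencing.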

Sequence | protein stability index (doa10∆) | protein stability index (pdr5∆) | protein stability index (san1∆) | protein stability index (ubr1∆)
IASKMSLAPEADLDSLI [RPT3] | 2.62 ± 0.1 | 2.81 ± 0.13 | 2.1 ± 0.12 | 3.07 ± 0.19
ICSCVNRGVKLEIVYGY [RPP1] | 2.38 ± 0.1 | 2.63 ± 0.063 | 2.43 ± 0.08 | 2 ± 0.049
IDALGTEFSKNDLEVGV [SCL1] | 2.67 ± 0.097 | 2.46 ± 0.11 | 2.49 ± 0.11 | 2.65 ± 0.08
IDDFTTRLWGSVYYHKG [SNU114] | 3.06 ± 0.24 | 3.41 ± 0.17 | – | 3.31 ± 0.13
IDDKGVLMERKDERGEG [ITC1] | 3 ± 0.21 | 3.5 ± 0.18 | 3 ± 0.15 | 3.02 ± 0.21
IDDLIHEIITVGPHFKQ [RPL7A] | 1.87 ± 0.1 | 2.32 ± 0.11 | – | 1.56 ± 0.064
IDEVDSIATKRFDAQTG [RPT3] | 3.12 ± 0.12 | 3.18 ± 0.076 | 2.93 ± 0.075 | 3.38 ± 0.1
IDGPKAGVPRQAINLGQ [RPL14A] | 3.58 ± 0.14 | 3.29 ± 0.11 | 2.69 ± 0.11 | 3.31 ± 0.1
IDGSTSHEERIEAIDEY [ISW2] | 3.26 ± 0.079 | 3.26 ± 0.11 | 3.06 ± 0.091 | 3.32 ± 0.047
IDMESDVEDDDKETQLK [POP7] | 1.67 ± 0.054 | 1.92 ± 0.048 | 1.62 ± 0.088 | 1.98 ± 0.031
IDNGTGRTGNGNMGITT [MED6] | 2.92 ± 0.12 | 2.98 ± 0.061 | 3.25 ± 0.067 | 3.31 ± 0.043
IDNLESYAGISTDKLVQ [SIR2] | 2.9 ± 0.057 | 2.93 ± 0.09 | 2.94 ± 0.068 | 3.08 ± 0.044
IDSPELLSLISTTAALQ [RPN7] | 2.23 ± 0.04 | 2.65 ± 0.041 | 2.32 ± 0.041 | 2.45 ± 0.032
IDTDLFGAPNNPNSTAI [YGL172W/NUP49] | 2.8 ± 0.075 | 2.78 ± 0.063 | 2.91 ± 0.053 | 2.59 ± 0.053
IDTLLYLMTYPQQPMVK [RET1] | 1.52 ± 0.097 | 2.09 ± 0.12 | 2.33 ± 0.13 | 1.53 ± 0.056
IDVLLEQTTGGNNKDLK [RPB4] | – | 3.68 ± 0.27 | – | 3.5 ± 0.079
IDYHKTAKETKMLMNLH [RPN11] | 2.5 ± 0.061 | 2.45 ± 0.06 | 2.84 ± 0.057 | 2.58 ± 0.055
IEATDLGNIASSFYINH [BRR2] | 3 ± 0.085 | 3.04 ± 0.1 | 3.12 ± 0.078 | 3.3 ± 0.072
IEDLWQFLYEKHYKNIP [RPC82] | 2.23 ± 0.088 | 1.53 ± 0.078 | 1.62 ± 0.19 | 2.1 ± 0.071
IEIDYTVRVDKASTYGE [SNF12] | 1.68 ± 0.08 | 1.41 ± 0.067 | 1.53 ± 0.16 | 1.39 ± 0.04
IELDQVLNMLYWVPDWD [RPO21] | 2.84 ± 0.095 | 2.32 ± 0.068 | 2.17 ± 0.11 | 2.51 ± 0.057
IELLSLDDDSIVNHEQD [SRB4] | 2.9 ± 0.1 | 3.19 ± 0.089 | 3.4 ± 0.083 | 3.12 ± 0.088
IELVVTEKEEAVAKAAE [RPL17A] | 3.41 ± 0.064 | 3.33 ± 0.05 | 3.27 ± 0.04 | 3.25 ± 0.047
IEQGIPKHSYLSGNPLT [SIR4] | 2.86 ± 0.07 | 2.88 ± 0.076 | 3.13 ± 0.17 | 2.96 ± 0.061
IFEAISLSDELNLDEIV [YJL039C/NUP192] | 2.76 ± 0.067 | 2.73 ± 0.064 | 2.72 ± 0.042 | 2.87 ± 0.054
IFEKELMYQIKKECALL [SRB4] | 2.87 ± 0.28 | 3.2 ± 0.21 | 2.61 ± 0.26 | 3.44 ± 0.19
IFISSDHEFVLISLIMT [YMR129W/POM152] | 1.3 ± 0.13 | 1.24 ± 0.071 | 2.01 ± 0.16 | 1.61 ± 0.29

Sequence | protein stability index (doa10∆) | protein stability index (pdr5∆) | protein stability index (san1∆) | protein stability index (ubr1∆)
IFKDKEKLVSDLRLIKV [SMC1] | 3.25 ± 0.26 | 3.23 ± 0.089 | 3.31 ± 0.21 | 3.44 ± 0.15
IFNDILAHVDQIVDIRN [YJL039C/NUP192] | 2.83 ± 0.1 | 2.64 ± 0.18 | 2.97 ± 0.082 | 2.9 ± 0.076
IFNFDQLVEITEQIKMR [SRB8] | 1.59 ± 0.1 | 1.6 ± 0.082 | 1.66 ± 0.14 | 1.48 ± 0.057
IFSLLTGYPDEPPAGVA [CYT1] | 2.87 ± 0.18 | 2.52 ± 0.14 | 2.4 ± 0.13 | 2.54 ± 0.09
IGIDPPRGVLLYGPPGT [RPT3] | 3.04 ± 0.088 | 2.58 ± 0.1 | 2.89 ± 0.081 | 2.74 ± 0.073
IGIMASDGIVLAAERKV [PRE9] | 2.79 ± 0.29 | – | 3.37 ± 0.15 | –
IGQLMAFDKHMNLVLNE [SMB1] | 2.04 ± 0.15 | 2.39 ± 0.2 | 2.72 ± 0.16 | 2.57 ± 0.051
IGSGAMSPLECRNILGV [RPP1] | 1.93 ± 0.03 | 2.43 ± 0.046 | 2.19 ± 0.064 | 2.38 ± 0.034
IGTGEHIHDLEKFSPKS [SRP54] | 2.33 ± 0.067 | 2.43 ± 0.053 | 2.9 ± 0.053 | 2.03 ± 0.042
IGTHHAGLTRSDRSLSE [BRR2] | 2.2 ± 0.11 | 2.05 ± 0.2 | 1.47 ± 0.14 | 2.62 ± 0.07
IGVRCYEAYPNTSLPPS [FAS1] | 2.29 ± 0.036 | 2.33 ± 0.032 | 2.59 ± 0.034 | 2.54 ± 0.028
IHIDALELAGMDALYEK [SIR3] | 2.97 ± 0.1 | 3.04 ± 0.098 | 2.71 ± 0.07 | 2.93 ± 0.079
IHKQIVIEMKRCFENLQ [UBP6] | 2.75 ± 0.097 | 2.13 ± 0.093 | 3.1 ± 0.064 | 2.87 ± 0.1
IHPIPSVTVSQGNYVTE [YMR129W/POM152] | 2.21 ± 0.055 | 2.6 ± 0.066 | 2.58 ± 0.073 | 2.43 ± 0.043
IHQILLPTNPTLDKPNA [CSE2] | 2.56 ± 0.039 | 2.58 ± 0.041 | 2.37 ± 0.044 | 2.42 ± 0.034
IIDGPKALILAPTRELV [PRP28] | 1.59 ± 0.062 | 2.32 ± 0.053 | 1.89 ± 0.1 | 1.68 ± 0.052
IIDVGTHHTDIIPIVDY [ARP9] | 2.41 ± 0.088 | 2.48 ± 0.056 | 2.5 ± 0.056 | 2.59 ± 0.036
IIHVLTTMFENTGWSCS [RGR1] | 2.16 ± 0.054 | 2.33 ± 0.077 | 2.7 ± 0.077 | 2.73 ± 0.044
IIKANQLILSDVDPEFY [RET1] | 1.51 ± 0.094 | 1.76 ± 0.081 | 1.6 ± 0.11 | 1.96 ± 0.081
IIKERALLSKVKWVHMI [SNF2] | 1.37 ± 0.059 | 1.23 ± 0.061 | 1.34 ± 0.088 | 1.18 ± 0.042
IILHFANFGEILEDFRV [YMR153W/NUP53] | 2.7 ± 0.1 | 2.65 ± 0.084 | 2.85 ± 0.062 | 2.85 ± 0.16
IIPIVDYAQLDHLVSSI [ARP9] | 2.13 ± 0.05 | 2.48 ± 0.051 | 2.34 ± 0.053 | 2.38 ± 0.039
IIQGRKNFDMLNSMEKD [PCI8] | 2.63 ± 0.083 | 2.77 ± 0.074 | 2.95 ± 0.046 | 2.71 ± 0.047
IIQNAQRDAVTLFCCLL [RPO21] | 2.88 ± 0.053 | 2.54 ± 0.055 | 2.53 ± 0.051 | 2.44 ± 0.046
IIRLLPINLENNDGSYG [SRB8] | 1.7 ± 0.064 | 1.24 ± 0.048 | 1.21 ± 0.077 | 1.39 ± 0.048
IIVAGYDDKNKGEVYTI [PRE3] | 3 ± 0.083 | 3.12 ± 0.096 | 3.42 ± 0.089 | 3.45 ± 0.098
IIVQYLTKFRQKLMQLV [RGR1] | 2.65 ± 0.089 | 2.88 ± 0.16 | 2.56 ± 0.083 | 2.46 ± 0.1

Sequence | protein stability index (doa10∆) | protein stability index (pdr5∆) | protein stability index (san1∆) | protein stability index (ubr1∆)
IKEDIKKQPSILVGGTL [SNF2] | 1.93 ± 0.084 | 2.15 ± 0.12 | 2.92 ± 0.12 | 3.27 ± 0.14
IKEELTKLIISGQLNFE [PCI8] | 3.29 ± 0.15 | 3.19 ± 0.15 | 2.54 ± 0.26 | 2.99 ± 0.088
IKFGGLIIQKIPSLQNN [ECM29] | 1.83 ± 0.066 | 1.72 ± 0.066 | 1.5 ± 0.064 | 1.83 ± 0.062
IKFKKCDGDTVWDKFAV [SSN2] | 3 ± 0.052 | 3.03 ± 0.048 | 2.87 ± 0.046 | 2.75 ± 0.046
IKFLLTFIDKERHQKQL [YCS4] | 1.7 ± 0.18 | – | 1.58 ± 0.27 | –
IKLNGSTLLCTDLESKS [SNU114] | 2.67 ± 0.06 | 2.73 ± 0.058 | 2.54 ± 0.056 | 2.82 ± 0.063
IKMQRQFSQLNDPNAAV [MED6] | 3.01 ± 0.07 | 3.04 ± 0.059 | 3.09 ± 0.06 | 3.16 ± 0.059
IKNVIVSNRVAAPARAG [RPP0] | 1.82 ± 0.13 | 2.44 ± 0.11 | 3 ± 0.14 | 1.96 ± 0.22
IKQDIPIVIIFRALGII [RPB2] | 1.61 ± 0.05 | 1.33 ± 0.037 | 1.48 ± 0.077 | 1.49 ± 0.039
IKQTSDESTIKRIKPNT [ECM29] | 3 ± 0.073 | 3 ± 0.068 | 2.85 ± 0.048 | 2.94 ± 0.059
IKTFFTQKDSARVSPRN [YAR002W/NUP60] | 3.22 ± 0.097 | 3.49 ± 0.1 | 3.18 ± 0.086 | 3.02 ± 0.064
IKTKQMSLKKCQEEVST [SMC2] | 2.48 ± 0.098 | 3.02 ± 0.095 | 3.03 ± 0.088 | 3.27 ± 0.059
ILATNSLRILAKLSERS [YJL039C/NUP192] | 2.39 ± 0.062 | 2.67 ± 0.062 | 2.49 ± 0.085 | 2.67 ± 0.053
ILDCVVTNSMRQTLAPY [YJR042W/NUP85] | 2.29 ± 0.064 | 2.84 ± 0.052 | 2.53 ± 0.05 | 2.6 ± 0.048
ILEFITAAQVANVELTP [RPC34] | 2.68 ± 0.12 | 2.13 ± 0.08 | 2.27 ± 0.095 | 1.53 ± 0.095
ILEHTLFKGTGFNSWEG [PRP8] | 2.42 ± 0.12 | 2.41 ± 0.12 | 3.38 ± 0.13 | 1.64 ± 0.039
ILFELYKIKGRNNSKSV [SRP72] | 2.04 ± 0.068 | 1.92 ± 0.061 | 2.75 ± 0.069 | 1.76 ± 0.062
ILHTKESSNEAKKTIQN [SIR4] | 2.74 ± 0.056 | 2.21 ± 0.058 | 2.73 ± 0.069 | 2.73 ± 0.054
ILKSPHLSKSPADRPQG [SIR4] | 2.43 ± 0.074 | 2.51 ± 0.058 | 2.33 ± 0.056 | 2.37 ± 0.045
ILMGFTLKDNIVVMDCF [RRI1] | – | 1.97 ± 0.084 | 2.74 ± 0.12 | 1.39 ± 0.14
ILNDSLIYHLKDCAEVD [IRR1] | 2.05 ± 0.056 | 2.28 ± 0.06 | 2.02 ± 0.09 | 1.71 ± 0.046
ILNELQPNARALERYDE [SMC1] | 3.3 ± 0.22 | 3.61 ± 0.11 | 3.27 ± 0.078 | 3.49 ± 0.086
ILNINNSTSKNTLLQQQ [SWI1] | 2.37 ± 0.052 | 2.87 ± 0.08 | 2 ± 0.069 | 2.4 ± 0.047
ILNSIPAAANLDALVDC [YJL039C/NUP192] | 2.18 ± 0.074 | 2.72 ± 0.11 | 2.39 ± 0.067 | 2.5 ± 0.12
ILPDSLNLDSLLVDQKQ [SMD1] | 3.29 ± 0.098 | 3.01 ± 0.085 | 3.21 ± 0.074 | 3.09 ± 0.06
